What was measured:
[1] = biological target: the molecule itself; assay: circular dichroism thermal melting at different concentrations; PBS pH 7.4; ellipticity at 222 nm, 2-80 °C, 2 °C/min; melting temperature rises with the concentration of NEMO_(CoZi) (20.2, 24.9, 28.5 °C); monomer to coiled-coil dimer
linear di-Ubiquitin = biological target: T1, linear di-Ubiquitin (UniProt P0CG47 1-76; P0CG47 1-76); assay: BLI; biotinylated NEMO_(CoZi) or NEMO_(CoZi)-Ub immobilised on streptavidin biosensors (~2 ug/mL); di-Ub at 2-225 uM; 25 °C; 100 s association, 100 s dissociation; 10 mM HEPES pH 7.4, 150 mM NaCl, 3 mM EDTA, 0.005% Tween-20; equilibrium analysis of response against di-Ub concentration; conditions: both partners purified
T1 construct: ubiquitin (1-76), distal unit of the linear (M1-linked) dimer; ubiquitin (1-76), proximal unit, its Met1 joined by a peptide bond to Gly76 of the first unit; also called linear diubiquitin chains

B1: synthetic biotinylated mouse NEMO CoZi domain (NEMO_(CoZi)), 83-mer (domain or fragment)
chain: EDLRQQLQQAEEALVAKQELIDKLKEEAEQHKIVMETVPVLKAQADIYKADFQAERHAREKLVEKKEYLQEQLEQLQREFNKL
modifications: biotin on the N-terminus; C-terminal amide
notes: CoZi (coiled-coil and leucine zipper) domain of mouse NEMO, 83-mer; The unmodified peptide is the same 83-mer after Alloc removal, without the auxiliary; also called unmodified NEMO_(CoZi); source: synthetic peptide (solid-phase synthesis in a single piece, HPLC purified); not shown: biotin, N-terminal, kept
**Q.** Does B1 bind [1]?
**A.** Result: binds

**Q.** What about the Kd (linear di-Ubiquitin) of the same binder?
**A.** The Kd was 25 µM.

— PMC6962051, “Auxiliary-assisted chemical ubiquitylation of NEMO and linear extension by HOIP” (Communications chemistry, 2019)
